Data reported in article PMC9837990.

Target: CH31 IgG monoclonal antibody
Assay: SPR

Substance	t1/2	Kd	koff
GT6 tetramer (biotinylated eOD-GT6 on streptavidin) (from UniProt P22629 25-183) (complex)	4.9 min		
GT8 tetramer (biotinylated eOD-GT8 on streptavidin) (from UniProt P22629 25-183) (complex)	44.4 min		
eOD-GT6-Avi-3C-His (designed binder)		5.2 µM	> 0.01 s⁻¹
eOD-GT8_AviHis (designed binder)		0.308 µM	> 0.01 s⁻¹
